Reference: the supplement of paper PMC6757056
± gives the standard deviation of the averaged measurements.

B1: library; a variant is named by its letters at N, in order (parent)
chain: GCUGUCACCGGUGCUUGGUACGUUAUAUUCAGCCGGUCUGAUGAGUCUNNNNNNAGACGAAACAGC

What was measured:
(6R,S)-folinic acid [1] = variants of: B1; experiment: FACS-Seq fitted mean relative fluorescence mCherry/BFP without ligand (log10 relative fluorescence); HEK293T overexpressing SLC46A1; higher = higher reporter protein expression; details: without (6R,S)-folinic acid; ligand present: no
Method in brief: (§1)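 Lentivirally transduced HEK293T libraries carried an mCherry reporter with the ribozyme switch and an EF1α-BFP marker. Transduced cells were enriched, then incubated with or without ligand for 48 h and sorted into 6 bins by mCherry/BFP. Genomic DNA from each bin was PCR-amplified, barcoded and sequenced on MiSeq. Fluorescence was the fitted normal mean of log10(mCherry/BFP) bin counts, scaled to five spiked-in control ribozymes.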

(6R,S)-folinic acid [2] = variants of: B1; experiment: normalized RNA/DNA level without ligand (relative to sTRSVctl = 100) (log10 (% of sTRSVctl)); HEK293T overexpressing SLC46A1; higher = less ribozyme self-cleavage, higher mRNA level; details: without (6R,S)-folinic acid; ligand present: no
Experimental: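 Hammerhead (sTRSV) ribozyme switch libraries with a ligand aptamer grafted on stem I and a randomized N4-6 loop II, cloned into the 3' UTR of mCherry and transiently transfected into HEK293T cells; RNA-Seq 72 h post transfection with ligand added 1 h before transfection; RNA read count / plasmid DNA read count normalized to the non-cleaving sTRSVctl (x100), log10; sequences with >100 DNA reads. FACS-Seq: lentiviral library sorted into 6 bins after 48 h ligand, log-normal fit mean of mCherry/BFP scaled to controls. Printed sequences are partial switch sequences.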

(6R,S)-folinic acid [3] = variants of: B1; experiment: FACS-Seq fitted mean relative fluorescence mCherry/BFP with ligand (log10 relative fluorescence); HEK293T overexpressing SLC46A1; ligand concentration (+) FACS-Seq: 6 mM; higher = higher reporter protein expression; details: with (6R,S)-folinic acid; ligand present: yes
Method in brief: as §1

(6R,S)-folinic acid [4] = variants of: B1; experiment: normalized RNA/DNA level with ligand (relative to sTRSVctl = 100) (log10 (% of sTRSVctl)); HEK293T overexpressing SLC46A1; ligand concentration (+) RNA-Seq: 6 mM; higher = less ribozyme self-cleavage, higher mRNA level; details: with (6R,S)-folinic acid; ligand present: yes
Method in brief: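 For each 6-well well, 4 µg of library plasmid encoding mCherry-linked ribozyme switches, or eGFP-linked ones in some ligand experiments, was transfected into HEK293T. Any ligand was added 1 h before transfection, and RNA was extracted with EDTA 72 h after it, then reverse-transcribed, amplified, barcoded and sequenced. RNA level was obtained by dividing RNA reads by DNA reads, normalizing to a spiked-in non-cleaving sequence or to the top sequences, then scaling and log-transforming. The top set was 25 sequences, scaling was ×100 with log10, and ≥100 DNA reads were required.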

Variant | FACS-Seq fitted mean (log10) ((6R,S)-folinic acid [1]) | normalized RNA/DNA level without ligand (log10) ((6R,S)-folinic acid [2]) | FACS-Seq fitted mean (log10) ((6R,S)-folinic acid [3]) | normalized RNA/DNA level with ligand (log10) ((6R,S)-folinic acid [4])
GGGUAA | 0.299 ± 0.036 | 1.997 ± 0.011 | 0.348 ± 0.28 | 2 ± 0.026
GGGUAC | 0.536 ± 0.17 | 1.952 ± 0.0069 | 0.245 ± 0.036 | 1.99 ± 0.073
GGGUAU | 0.149 ± 0.054 | 2.014 ± 0.015 | 0.284 ± 0.16 | 2.01 ± 0.033
GGGUAG | 0.0738 ± 0.081 | 1.979 ± 0.0061 | 0.00328 ± 0.082 | 2.013 ± 0.015
UGCGUG | -0.00857 ± 0.093 | 1.6768 ± 0.0013 | 0.36 ± 0.1 | 1.95 ± 0.045
CGGUGU | 0.22 ± 0.22 | 1.993 ± 0.015 | 0.278 ± 0.12 | 1.98 ± 0.046
AGAUUA | 0.568 ± 0.048 | 2.001 ± 0.018 | 0.535 ± 0.036 | 2.01 ± 0.037
AGAUUC | 0.551 ± 0.08 | 2.05 ± 0.0077 | 0.54 ± 0.24 | 2.04 ± 0.042
UGAUCG | 0.0489 ± 0.16 | 1.84 ± 0.021 | 0.0432 ± 0.082 | 1.992 ± 0.016
AGGAGA | 0.26 ± 0.062 | 1.931 ± 0.007 | 0.172 ± 0.078 | 2.018 ± 0.017
AGGAGG | 0.585 ± 0.15 | 1.922 ± 0.0095 | 0.614 ± 0.2 | 2.05 ± 0.03
CGGCAU | 0.32 ± 0.03 | 2.011 ± 0.0083 | 0.52 ± 0.17 | 2.019 ± 0.02
GGGCAU | 0.273 ± 0.12 | 2.045 ± 0.01 | 0.0697 ± 0.059 | 2.054 ± 0.0062
CGCUUU | -0.0215 ± 0.022 | 2.017 ± 0.0068 | 0.0431 ± 0.039 | 2 ± 0.063
UGGACC | 0.168 ± 0.11 | 2.01 ± 0.033 | 0.0739 ± 0.15 | 1.97 ± 0.033
UGGACA | 0.24 ± 0.025 | 1.95 ± 0.0054 | 0.186 ± 0.017 | 2.019 ± 0.019
UGGACG | 0.175 ± 0.0034 | 1.778 ± 0.013 | 0.472 ± 0.059 | 1.97 ± 0.029
UGUAAA | 0.596 ± 0.02 | 1.924 ± 0.0087 | 0.761 ± 0.19 | 1.993 ± 0.0085
UGUAAG | 0.295 ± 0.0061 | 1.666 ± 0.0027 | 0.624 ± 0.062 | 1.94 ± 0.033
UGUAAU | 0.41 ± 0.068 | 1.886 ± 0.0076 | 0.35 ± 0.072 | 1.994 ± 0.0024
UGGAUU | 0.509 ± 0.13 | 1.9762 ± 0.00085 | 0.582 ± 0.21 | 2.03 ± 0.023
UGGAUG | 0.178 ± 0.037 | 1.68 ± 0.017 | 0.784 ± 0.046 | 1.958 ± 0.015
CGUAAA | 0.203 ± 0.0032 | 1.956 ± 0.0076 | 0.334 ± 0.32 | 1.977 ± 0.017
CGUAAU | 0.544 ± 0.015 | 1.93 ± 0.029 | 0.552 ± 0.14 | 1.96 ± 0.022

Variant | FACS-Seq fitted mean (log10) ((6R,S)-folinic acid [1]) | normalized RNA/DNA level without ligand (log10) ((6R,S)-folinic acid [2]) | FACS-Seq fitted mean (log10) ((6R,S)-folinic acid [3]) | normalized RNA/DNA level with ligand (log10) ((6R,S)-folinic acid [4])
UGCAAU | 0.173 ± 0.069 | 1.841 ± 0.0071 | 0.456 ± 0.15 | 1.973 ± 0.016
UGCAAA | 0.549 ± 0.013 | 1.957 ± 0.0057 | 0.532 ± 0.037 | 1.98 ± 0.034
AGCAGA | 0.0194 ± 0.039 | 1.98 ± 0.0025 | -0.229 ± 0.27 | 2.02 ± 0.029
GGCUUG | 0.434 ± 0.019 | 2.078 ± 0.012 | 0.292 ± 0.34 | 2.049 ± 0.018
CGCAUA | 0.387 ± 0.012 | 1.98 ± 0.0046 | 0.156 ± 0.073 | 2 ± 0.059
CGCAUU | 0.241 ± 0.21 | 2.015 ± 0.0023 | 0.576 ± 0.31 | 1.99 ± 0.039
AGCCUA | 0.465 ± 0.015 | 2.021 ± 0.012 | 0.612 ± 0.31 | 2.01 ± 0.021
AGCCUG | 0.71 ± 0.23 | 2.01 ± 0.027 | 0.405 ± 0.12 | 2.05 ± 0.051
CGGGUA | -0.402 ± 0.16 | 1.939 ± 0.018 | -0.606 ± 0.59 | 1.97 ± 0.054
UGCGAU | 0.213 ± 0.026 | 1.85 ± 0.019 | -0.0289 ± 0.033 | 1.98 ± 0.029
UGCGAC | 0.375 ± 0.053 | 1.979 ± 0.018 | 0.26 ± 0.29 | 2.02 ± 0.034
UGCGAG | 0.31 ± 0.21 | 1.71 ± 0.027 | -0.231 ± 0.053 | 1.96 ± 0.058
GGGUCG | 0.531 ± 0.011 | 2.082 ± 0.0039 | 0.432 ± 0.17 | 2.06 ± 0.05
CGGUAA | 0.149 ± 0.092 | 1.954 ± 0.014 | 0.184 ± 0.083 | 1.993 ± 0.013
CGGCUC | 0.213 ± 0.046 | 2.048 ± 0.0069 | 0.269 ± 0.16 | 2.037 ± 0.014
UGAUUA | -0.918 ± 0.18 | 1.951 ± 0.0029 | -0.48 ± 0.39 | 2.01 ± 0.037
UGAUUG | 0.168 ± 0.056 | 1.768 ± 0.0099 | 0.541 ± 0.042 | 1.96 ± 0.025
AGGCUC | 0.131 ± 0.13 | 2.06 ± 0.041 | -0.123 ± 0.11 | 2.01 ± 0.067
AGGCUA | 0.50616 ± 0.00017 | 2.041 ± 0.0053 | 0.407 ± 0.33 | 2.06 ± 0.037
CGGGAU | 0.211 ± 0.017 | 1.97 ± 0.029 | 0.0466 ± 0.17 | 2 ± 0.049
CGGGAA | 0.288 ± 0.27 | 1.98 ± 0.024 | 0.519 ± 0.063 | 2.02 ± 0.046
CGGGAC | -0.0861 ± 0.029 | 2.015 ± 0.0095 | -0.418 ± 0.079 | 2.02 ± 0.032
UGCCUG | 0.68 ± 0.017 | 1.875 ± 0.016 | 0.78 ± 0.085 | 2.02 ± 0.021
AGGCAA | 0.293 ± 0.14 | 1.994 ± 0.016 | 0.205 ± 0.1 | 1.994 ± 0.019

Variant | FACS-Seq fitted mean (log10) ((6R,S)-folinic acid [1]) | normalized RNA/DNA level without ligand (log10) ((6R,S)-folinic acid [2]) | FACS-Seq fitted mean (log10) ((6R,S)-folinic acid [3]) | normalized RNA/DNA level with ligand (log10) ((6R,S)-folinic acid [4])
AGGCAU | 0.532 ± 0.008 | 1.982 ± 0.0087 | 0.603 ± 0.48 | 2.02 ± 0.026
AGGCAC | 0.308 ± 0.083 | 2.0376 ± 0.0006 | 0.298 ± 0.11 | 2.02 ± 0.018
AGAUGG | 0.589 ± 0.0066 | 1.91 ± 0.0092 | 0.62 ± 0.25 | 2.02 ± 0.028
AGAUGA | 0.308 ± 0.011 | 1.9723 ± 0.0012 | 0.112 ± 0.046 | 2.02 ± 0.038
UGAUGG | 0.038 ± 0.0089 | 1.625 ± 0.0082 | 0.583 ± 0.093 | 1.91 ± 0.038
UGAUGA | 0.447 ± 0.11 | 1.865 ± 0.0033 | 0.525 ± 0.05 | 2.01 ± 0.047
UGAUGU | 0.318 ± 0.071 | 1.93 ± 0.021 | 0.125 ± 0.22 | 2.02 ± 0.044
UGGCCA | 0.74 ± 0.1 | 2.04 ± 0.014 | 0.432 ± 0.081 | 2.057 ± 0.014
UGCGGG | -0.0146 ± 0.0024 | 1.788 ± 0.011 | 0.675 ± 0.21 | 1.99 ± 0.043
UGCGCU | 0.293 ± 0.033 | 2.043 ± 0.0054 | 0.428 ± 0.044 | 2.04 ± 0.03
UGCCAC | 0.366 ± 0.066 | 1.985 ± 0.017 | 0.438 ± 0.13 | 1.977 ± 0.013
UGCCAA | 0.194 ± 0.021 | 1.956 ± 0.015 | 0.168 ± 0.2 | 2.01 ± 0.0051
UGCUAG | 0.312 ± 0.12 | 1.76 ± 0.028 | 0.441 ± 0.057 | 1.972 ± 0.014
UGCUAA | 0.427 ± 0.062 | 1.97 ± 0.026 | 0.537 ± 0.11 | 2.018 ± 0.016
UGCAGA | -0.262 ± 0.068 | 1.899 ± 0.008 | -0.0873 ± 0.14 | 1.995 ± 0.0057
UGCAGG | -0.138 ± 0.052 | 1.68 ± 0.029 | -0.00907 ± 0.1 | 1.909 ± 0.017
UGGGUG | -0.154 ± 0.034 | 1.687 ± 0.0083 | 0.261 ± 0.016 | 1.95 ± 0.057
GGGGCC | -0.232 ± 0.1 | 2.05 ± 0.023 | -0.6 ± 0.34 | 2.05 ± 0.015
UGCUUG | 0.46 ± 0.098 | 1.76 ± 0.018 | 0.655 ± 0.047 | 1.96 ± 0.034
AGCGGU | 0.638 ± 0.18 | 1.952 ± 0.013 | 0.522 ± 0.022 | 2 ± 0.043
GGGUUG | 0.344 ± 0.19 | 2.037 ± 0.0021 | 0.56 ± 0.17 | 2.05 ± 0.049
UGGAAG | 0.369 ± 0.058 | 1.653 ± 0.0055 | 0.695 ± 0.017 | 1.96 ± 0.039
GGGACU | 0.111 ± 0.0086 | 2.023 ± 0.011 | 0.0545 ± 0.19 | 2.008 ± 0.019
